The values below come from paper PMC7477763.

The target in this data set is B-Ub-MERS27-VME (UniProt P0CG48).
Chain of UniProt P0CG48 (P0CG48 whole entry, looked up): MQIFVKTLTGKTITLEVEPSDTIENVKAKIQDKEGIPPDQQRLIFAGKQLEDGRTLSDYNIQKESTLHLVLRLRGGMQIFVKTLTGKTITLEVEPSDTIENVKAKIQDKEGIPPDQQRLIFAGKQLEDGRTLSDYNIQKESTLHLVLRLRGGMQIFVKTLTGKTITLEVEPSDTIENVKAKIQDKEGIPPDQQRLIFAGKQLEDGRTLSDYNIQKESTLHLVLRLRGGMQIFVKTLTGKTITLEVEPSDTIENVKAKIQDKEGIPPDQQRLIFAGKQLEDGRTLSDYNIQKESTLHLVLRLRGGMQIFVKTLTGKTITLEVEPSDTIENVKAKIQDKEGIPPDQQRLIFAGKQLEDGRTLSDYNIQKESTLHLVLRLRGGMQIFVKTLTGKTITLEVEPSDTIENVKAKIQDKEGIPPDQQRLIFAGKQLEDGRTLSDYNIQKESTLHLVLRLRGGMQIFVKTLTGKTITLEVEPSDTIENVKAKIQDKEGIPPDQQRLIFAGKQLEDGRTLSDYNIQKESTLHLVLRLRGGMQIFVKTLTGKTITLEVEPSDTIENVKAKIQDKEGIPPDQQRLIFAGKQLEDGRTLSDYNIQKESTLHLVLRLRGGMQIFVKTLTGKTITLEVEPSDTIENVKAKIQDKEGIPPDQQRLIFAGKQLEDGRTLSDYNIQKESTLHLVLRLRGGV

As for “Middle East respiratory syndrome papain-like protease (MERS PLpro), recombinant”, the kobs/I is listed as 22 144 ± 1431 M^–1 s^–1.
